How the values were obtained:
Experiment in all cases: cell-based or functional assay
[1] = target: HIV-1 92BR020 envelope glycoprotein (Env) on pseudovirus (HIV-1)
[2] = target: HIV-1 92RW020 envelope glycoprotein (Env) on pseudovirus (HIV-1)
[3] = target: HIV-1 92TH021 envelope glycoprotein (Env) on pseudovirus (HIV-1)
[4] = target: HIV-1 92UG024 envelope glycoprotein (Env) on pseudovirus (HIV-1)
[5] = target: HIV-1 Env of isolate JRFL (HIV-1)
[6] = target: HIV-1 Env of isolate MGRM-AE-004 (HIV-1)
[7] = target: HIV-1 Env of isolate MGRM-AE-005 (HIV-1)
[8] = target: HIV-1 Env of isolate MGRM-AE-006 (HIV-1)
[9] = target: HIV-1 Env of isolate MGRM-AE-007 (HIV-1)
[10] = target: HIV-1 Env of isolate MGRM-AE-008 (HIV-1)
[11] = target: HIV-1 Env of isolate MGRM-AG-001 (HIV-1)
[12] = target: HIV-1 Env of isolate MGRM-AG-002 (HIV-1)
[13] = target: HIV-1 Env of isolate MGRM-AG-003 (HIV-1)
[14] = target: HIV-1 Env of isolate MGRM-AG-005 (HIV-1)
[15] = target: HIV-1 Env of isolate MGRM-AG-006 (HIV-1)
[16] = target: HIV-1 Env of isolate MGRM-AG-008 (HIV-1)
[17] = target: HIV-1 Env of isolate MGRM-AG-009 (HIV-1)
[18] = target: HIV-1 Env of isolate MGRM-AG-011 (HIV-1)
[19] = target: HIV-1 Env of isolate MGRM-AG-012 (HIV-1)
[20] = target: HIV-1 Env of isolate MGRM-AG-013 (HIV-1)
[21] = target: HIV-1 Env of isolate MGRM-Chronic-B-010 (HIV-1)
[22] = target: HIV-1 Env of isolate MGRM-Chronic-B-011 (HIV-1)
[23] = target: HIV-1 Env of isolate MGRM-Chronic-B-012 (HIV-1)
[24] = target: HIV-1 Env of isolate MGRM-Chronic-B-017 (HIV-1)
[25] = target: HIV-1 Env of isolate MGRM-Chronic-B-018 (HIV-1)
[26] = target: HIV-1 Env of isolate MGRM-Chronic-B-020 (HIV-1)
[27] = target: HIV-1 Env of isolate MGRM-Chronic-B-023 (HIV-1)
[28] = target: HIV-1 Env of isolate MGRM-Chronic-B-024 (HIV-1)
[29] = target: HIV-1 Env of isolate MGRM-G-001 (HIV-1)
[30] = target: HIV-1 Env of isolate MGRM-G-004 (HIV-1)
[31] = target: HIV-1 Env of isolate MGRM-G-006 (HIV-1)
[32] = target: HIV-1 Env of isolate MGRM-G-009 (HIV-1)
[33] = target: HIV-1 Env of isolate MGRM-G-024 (clade G pseudovirus) (HIV-1)
[34] = target: HIV-1 MGRM-C-001 Env (HIV-1)
[35] = target: HIV-1 NL43 envelope glycoprotein (Env) on pseudovirus (HIV-1)
[36] = target: aMLV envelope (negative control pseudovirus)

Chain of 1443_C16 (PG16) (TCN-116) (antibody) (VH): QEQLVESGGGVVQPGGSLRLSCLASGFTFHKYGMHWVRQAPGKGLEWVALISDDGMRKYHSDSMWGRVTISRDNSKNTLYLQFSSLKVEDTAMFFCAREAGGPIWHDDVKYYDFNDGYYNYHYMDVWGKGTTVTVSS
Chain of 1443_C16 (PG16) (TCN-116) (antibody) (VL): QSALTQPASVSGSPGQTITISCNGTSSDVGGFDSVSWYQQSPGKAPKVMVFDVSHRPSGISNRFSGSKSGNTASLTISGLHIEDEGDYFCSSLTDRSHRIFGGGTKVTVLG

Substance | IC90 (pseudovirus neutralization) [1] [µg/mL] | IC90 (pseudovirus neutralization) [2] [µg/mL] | IC90 (pseudovirus neutralization) [3] [µg/mL] | IC90 (pseudovirus neutralization) [4] [µg/mL] | IC50 (µg/ml), pseudovirus neutralization [5] [µg/mL] | IC50 (µg/ml), pseudovirus neutralization [6] [µg/mL] | IC50 (µg/ml), pseudovirus neutralization [7] [µg/mL] | IC50 (µg/ml), pseudovirus neutralization [8] [µg/mL] | IC50 (µg/ml), pseudovirus neutralization [9] [µg/mL] | IC50 (µg/ml), pseudovirus neutralization [10] [µg/mL] | IC50 (µg/ml), pseudovirus neutralization [11] [µg/mL] | IC50 (µg/ml), pseudovirus neutralization [12] [µg/mL] | IC50 (µg/ml), pseudovirus neutralization [13] [µg/mL] | IC50 (µg/ml), pseudovirus neutralization [14] [µg/mL] | IC50 (µg/ml), pseudovirus neutralization [15] [µg/mL] | IC50 (µg/ml), pseudovirus neutralization [16] [µg/mL] | IC50 (µg/ml), pseudovirus neutralization [17] [µg/mL] | IC50 (µg/ml), pseudovirus neutralization [18] [µg/mL] | IC50 (µg/ml), pseudovirus neutralization [19] [µg/mL] | IC50 (µg/ml), pseudovirus neutralization [20] [µg/mL] | also measured
2F5 (antibody) | > 50 | 27.7 | 18.8 | 34.4 | 3.54 | 0.98 | 0.14 | 0.18 | 0.07 | > 50 | 0.75 | 0.54 | 0.14 | > 50 | 0.85 | 0.54 | 24.8 | > 50 | 0.33 | 1.79 | IC50 (µg/ml), pseudovirus neutralization [21]: 0.96 µg/mL; IC50 (µg/ml), pseudovirus neutralization [22]: 0.81 µg/mL; IC50 (µg/ml), pseudovirus neutralization [23]: 17.6 µg/mL; IC50 (µg/ml), pseudovirus neutralization [24]: > 50 µg/mL; IC50 (µg/ml), pseudovirus neutralization [25]: 10.8 µg/mL; IC50 (µg/ml), pseudovirus neutralization [26]: 0.78 µg/mL; IC50 (µg/ml), pseudovirus neutralization [27]: 0.1 µg/mL; IC50 (µg/ml), pseudovirus neutralization [28]: > 50 µg/mL; IC50 (µg/ml), pseudovirus neutralization [29]: 4.1 µg/mL; IC50 (µg/ml), pseudovirus neutralization [30]: > 50 µg/mL; IC50 (µg/ml), pseudovirus neutralization [31]: 1.33 µg/mL; IC50 (µg/ml), pseudovirus neutralization [32]: 7.21 µg/mL; IC50 (µg/ml), pseudovirus neutralization [33]: 1.07 µg/mL; IC50 [34]: > 50 µg/mL; IC90 (pseudovirus neutralization) [35]: 19.3 µg/mL; IC50 (µg/ml), pseudovirus neutralization [36]: > 50 µg/mL
1443_C16 (PG16) (TCN-116) (antibody) | > 50 | > 50 | 23.4 | > 50 | > 50 | 0.002 | 0.02 | 0.03 | 0.04 | 3.25 | 0.03 | 0.03 | > 50 | > 50 | > 50 | 0.002 | > 50 | 0.002 | 25.1 | 0.31 | IC50 (µg/ml), pseudovirus neutralization [21]: 0.01 µg/mL; IC50 (µg/ml), pseudovirus neutralization [22]: > 50 µg/mL; IC50 (µg/ml), pseudovirus neutralization [23]: 3.74 µg/mL; IC50 (µg/ml), pseudovirus neutralization [24]: 0.02 µg/mL; IC50 (µg/ml), pseudovirus neutralization [25]: 0.7 µg/mL; IC50 (µg/ml), pseudovirus neutralization [26]: > 50 µg/mL; IC50 (µg/ml), pseudovirus neutralization [27]: 0.13 µg/mL; IC50 (µg/ml), pseudovirus neutralization [28]: 0.01 µg/mL; IC50 (µg/ml), pseudovirus neutralization [29]: 0.15 µg/mL; IC50 (µg/ml), pseudovirus neutralization [30]: > 50 µg/mL; IC50 (µg/ml), pseudovirus neutralization [31]: 2.42 µg/mL; IC50 (µg/ml), pseudovirus neutralization [32]: > 50 µg/mL; IC50 (µg/ml), pseudovirus neutralization [33]: 0.01 µg/mL; IC50 [34]: 16.8 µg/mL; IC90 (pseudovirus neutralization) [35]: > 50 µg/mL; IC50 (µg/ml), pseudovirus neutralization [36]: > 50 µg/mL
2G12 (antibody) | 24.1 | 6.23 | > 50 | 7.57 | 1.45 | > 50 | > 50 | > 50 | > 50 | > 50 | 0.69 | 0.54 | > 50 | > 50 | 3.92 | > 50 | > 50 | > 50 | 1.94 | 0.95 | IC50 (µg/ml), pseudovirus neutralization [21]: 1.5 µg/mL; IC50 (µg/ml), pseudovirus neutralization [22]: > 50 µg/mL; IC50 (µg/ml), pseudovirus neutralization [23]: 0.22 µg/mL; IC50 (µg/ml), pseudovirus neutralization [24]: > 50 µg/mL; IC50 (µg/ml), pseudovirus neutralization [25]: > 50 µg/mL; IC50 (µg/ml), pseudovirus neutralization [26]: 0.2 µg/mL; IC50 (µg/ml), pseudovirus neutralization [27]: 0.16 µg/mL; IC50 (µg/ml), pseudovirus neutralization [28]: > 50 µg/mL; IC50 (µg/ml), pseudovirus neutralization [29]: > 50 µg/mL; IC50 (µg/ml), pseudovirus neutralization [30]: > 50 µg/mL; IC50 (µg/ml), pseudovirus neutralization [31]: > 50 µg/mL; IC50 (µg/ml), pseudovirus neutralization [32]: > 50 µg/mL; IC50 (µg/ml), pseudovirus neutralization [33]: > 50 µg/mL; IC50 [34]: 2.93 µg/mL; IC90 (pseudovirus neutralization) [35]: 15.8 µg/mL; IC50 (µg/ml), pseudovirus neutralization [36]: > 50 µg/mL
